Data: publication PMC11408855, “The structure of the SufS–SufE complex reveals interactions driving protected persulfide transfer in iron-sulfur cluster biogenesis” (The Journal of Biological Chemistry, 2024)

B1: EcSufS, untagged (wild type) (enzyme, Escherichia coli)
chain: MIFSVDKVRADFPVLSREVNGLPLAYLDSAASAQKPSQVIDAEAEFYRHGYAAVHRGIHTLSAQATEKMENVRKRASLFINARSAEELVFVRGTTEGINLVANSWGNSNVRAGDNIIISQMEHHANIVPWQMLCARVGAELRVIPLNPDGTLQLETLPTLFDEKTRLLAITHVSNVLGTENPLAEMITLAHQHGAKVLVDGAQAVMHHPVDVQALDCDFYVFSGHKLYGPTGIGILYVKEALLQEMPPWEGGGSMIATVSLSEGTTWTKAPWRFEAGTPNTGGIIGLGAALEYVSALGLNNIAEYEQNLMHYALSQLESVPDLTLYGPQNRLGVIAFNLGKHHAYDVGSFLDNYGIAVRTGHHCAMPLMAYYNVPAMCRASLAMYNTHEEVDRLVTGLQRIHRLLG
modifications: PLP (pyridoxal 5'-phosphate) cofactor
notes: EcSufS, cysteine desulfurase SufS of Escherichia coli, UniProt P77444; Untagged version used for crystallography and with the EcSufE variants; In samples with cysteine the active site cysteine is thought to carry a persulfide; also called SufSA; SufSB

Columns and labels:
SufE (Escherichia coli) = SufE (Escherichia coli) (UniProt P76194); test: fluorescence polarization; settings: cited from earlier work
[1] = target: B1; test: fluorescence polarisation; 100 nM BODIPY-FL-labeled EcSufE titrated with EcSufS; 50 mM Mops pH 8.0, 150 mM NaCl, 0.1 mg/ml bovine serum albumin, 25 °C, 30 min; presence of 500 μM cysteine; apparent KD; settings: both partners purified
[2] = target: B1; test: fluorescence polarisation; 100 nM BODIPY-FL-labeled EcSufE titrated with EcSufS; 50 mM Mops pH 8.0, 150 mM NaCl, 0.1 mg/ml bovine serum albumin, 25 °C, 30 min; absence of cysteine; apparent KD; settings: both partners purified
[3] = target: B1; test: crystal structure; 230 μM SufS, 230 μM SufE (C51A, E107C) and 2 mM Cys; sitting drop vapor diffusion, PEG2000 MME, 0.1 M KSCN, 20 °C; settings: both partners purified
[4] = target: the molecule itself; test: as above

Row | Kd [1] [nM] | Kd [2] [nM] | Molecule | further results
1 |  |  | SufS (from UniProt P77444) | Kd (SufE (Escherichia coli)): 5000 nM
2 | 800 | 2300 | BODIPY-FL-labeled T116A EcSufE in the C51A/E107C background (natural protein, Escherichia coli, BODIPY-FL maleimide label (labeling efficiency 60 to 80%), EcSufE of Escherichia coli, UniProt P76194, with C51A, E107C and T116A; also called T116A SufE; source: E. coli BL21(DE3)Δsuf, pET21, purified, labeled with BODIPY-FL maleimide) MALLPDKEKLLRNFLRCANWEEKYLYIIELGQRLPELRDEDRSPQNSIQGAQSQVWIVMRQNAQGIIELQGDSDAAIVKGLIAVVFILYDQMTPQDIVNFDVRPWFCKMALTQHLAPSRSQGLEAMIRAIRAKAAALS | 
3 | 500 | 7000 | BODIPY-FL-labeled Q121E EcSufE in the C51A/E107C background (natural protein, Escherichia coli, BODIPY-FL maleimide label (labeling efficiency 60 to 80%), EcSufE of Escherichia coli, UniProt P76194, with C51A, E107C and Q121E; also called Q121E SufE; source: E. coli BL21(DE3)Δsuf, pET21, purified, labeled with BODIPY-FL maleimide) MALLPDKEKLLRNFLRCANWEEKYLYIIELGQRLPELRDEDRSPQNSIQGAQSQVWIVMRQNAQGIIELQGDSDAAIVKGLIAVVFILYDQMTPQDIVNFDVRPWFCKMALTQHLTPSRSEGLEAMIRAIRAKAAALS | 
4 | 3100 | 2200 | BODIPY-FL-labeled T116S EcSufE in the C51A/E107C background (natural protein, Escherichia coli, BODIPY-FL maleimide label (labeling efficiency 60 to 80%), EcSufE of Escherichia coli, UniProt P76194, with C51A, E107C and T116S; also called T116S SufE; source: E. coli BL21(DE3)Δsuf, pET21, purified, labeled with BODIPY-FL maleimide) MALLPDKEKLLRNFLRCANWEEKYLYIIELGQRLPELRDEDRSPQNSIQGAQSQVWIVMRQNAQGIIELQGDSDAAIVKGLIAVVFILYDQMTPQDIVNFDVRPWFCKMALTQHLSPSRSQGLEAMIRAIRAKAAALS | 
5 | 500 | 300 | BODIPY-FL-labeled R119A EcSufE in the C51A/E107C background (natural protein, Escherichia coli, BODIPY-FL maleimide label (labeling efficiency 60 to 80%), EcSufE of Escherichia coli, UniProt P76194, with C51A, E107C and R119A; also called R119A SufE; R119A EcSufE (in double mutant background); source: E. coli BL21(DE3)Δsuf, pET21, purified, labeled with BODIPY-FL maleimide) MALLPDKEKLLRNFLRCANWEEKYLYIIELGQRLPELRDEDRSPQNSIQGAQSQVWIVMRQNAQGIIELQGDSDAAIVKGLIAVVFILYDQMTPQDIVNFDVRPWFCKMALTQHLTPSASQGLEAMIRAIRAKAAALS | 
6 |  |  | C51A/E107C EcSufE (unlabeled, crystallised) (natural protein, Escherichia coli, EcSufE of Escherichia coli, UniProt P76194, with C51A and E107C; also called SufE C51A/E107C; SufE (C51A, E107C)) MALLPDKEKLLRNFLRCANWEEKYLYIIELGQRLPELRDEDRSPQNSIQGAQSQVWIVMRQNAQGIIELQGDSDAAIVKGLIAVVFILYDQMTPQDIVNFDVRPWFCKMALTQHLTPSRSQGLEAMIRAIRAKAAALS | stoichiometry N [3]: 1
7 | 900 | 1600 | BODIPY-FL-labeled R119K EcSufE in the C51A/E107C background (natural protein, Escherichia coli, BODIPY-FL maleimide label (labeling efficiency 60 to 80%), EcSufE of Escherichia coli, UniProt P76194, with C51A, E107C and R119K; also called R119K SufE; source: E. coli BL21(DE3)Δsuf, pET21, purified, labeled with BODIPY-FL maleimide) MALLPDKEKLLRNFLRCANWEEKYLYIIELGQRLPELRDEDRSPQNSIQGAQSQVWIVMRQNAQGIIELQGDSDAAIVKGLIAVVFILYDQMTPQDIVNFDVRPWFCKMALTQHLTPSKSQGLEAMIRAIRAKAAALS | 
8 | 3600 | 5900 | BODIPY-FL-labeled Q121A EcSufE in the C51A/E107C background (natural protein, Escherichia coli, BODIPY-FL maleimide label (labeling efficiency 60 to 80%), EcSufE of Escherichia coli, UniProt P76194, with C51A, E107C and Q121A; also called Q121A SufE; source: E. coli BL21(DE3)Δsuf, pET21, purified, labeled with BODIPY-FL maleimide) MALLPDKEKLLRNFLRCANWEEKYLYIIELGQRLPELRDEDRSPQNSIQGAQSQVWIVMRQNAQGIIELQGDSDAAIVKGLIAVVFILYDQMTPQDIVNFDVRPWFCKMALTQHLTPSRSAGLEAMIRAIRAKAAALS | 
9 |  |  | B1 | binding result [4]: binds
